From paper doi:10.1101/068262 (bioRxiv, 2016)
No end group written: not given here.

Tests used:
[1] = target: Sumo-ELL2(519-640) (human) (UniProt O00472); assay: fluorescence polarisation
[2] = target: ELL2^Occ–(Gly-Ser)4-AFF4^ELLBow fusion (UniProt Q9UHB7); assay: SEC
Sumo-ELL2(519-640) = Sumo-ELL2(519-640) (human, UniProt O00472 519-640); assay: fluorescence polarisation
GST-ELL2 (519-640) K625T = GST-ELL2 (519-640) K625T (human, UniProt O00472 519-640, K625T); assay: pull-down
GST-ELL2 (519-640) H559E = GST-ELL2 (519-640) H559E (human, UniProt O00472 519-640, H559E); assay: pull-down
Chain of GST-ELL2 (519-640) H559E (O00472 519-640 H559E): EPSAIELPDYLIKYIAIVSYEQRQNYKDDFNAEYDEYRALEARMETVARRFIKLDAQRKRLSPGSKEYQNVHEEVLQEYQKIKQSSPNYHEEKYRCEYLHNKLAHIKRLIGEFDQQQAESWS

GST-ELL2 (519-640) N619A = GST-ELL2 (519-640) N619A (human, UniProt O00472 519-640, N619A); assay: pull-down
Chain of GST-ELL2 (519-640) N619A (O00472 519-640 N619A): as the sequence (O00472 519-640 H559E) above, with E41H, N101A counted along it

GST-ELL2 (519-640) H608E = GST-ELL2 (519-640) H608E (human, UniProt O00472 519-640, H608E); assay: pull-down
Chain of GST-ELL2 (519-640) H608E (O00472 519-640 H608E): as the sequence (O00472 519-640 H559E) above, with E41H, H90E counted along it

Chain of Sumo-ELL2(519-640) (O00472 519-640): as the sequence (O00472 519-640 H559E) above, with E41H counted along it
Chain of GST-ELL2 (519-640) K625T (O00472 519-640 K625T): as the sequence (O00472 519-640 H559E) above, with E41H, K107T counted along it
Chain of Sumo-ELL2(519-640) (human) (O00472 519-640): as the sequence (O00472 519-640 H559E) above, with E41H counted along it

Row | fold reduction of affinity against wild type (Sumo-ELL2(519-640)) | Molecule | further results
1 | 4 fold | AFF4^ELLBow W327D (301-351) (peptide) PSQPLDASASGDVSCVDEILKEMTHSDPPPLTAIHTPCKTEPSKFPFPTKE | –
2 | ~20 fold | AFF4^ELLBow L331D (301-351) (peptide) PSQPLDASASGDVSCVDEILKEMTHSWPPPDTAIHTPCKTEPSKFPFPTKE | –
3 | 3 fold | AFF4^ELLBow double 328-329 Pro-Gly mutant (301-351) (peptide) PSQPLDASASGDVSCVDEILKEMTHSWGGPLTAIHTPCKTEPSKFPFPTKE | –
4 | > 25 fold | AFF4^ELLBow M323D (301-351) (peptide) PSQPLDASASGDVSCVDEILKEDTHSWPPPLTAIHTPCKTEPSKFPFPTKE | –

Further lines, the molecule ahead of its results:

Row | Molecule | fold reduction of affinity against wild type (Sumo-ELL2(519-640)) | further results
5 | AFF4^ELLBow α1 mutant D317P/E317P (301-351) (from UniProt Q9UHB7 301-351) (peptide) | – | fold reduction of affinity against wild type [1]: 10 fold
6 | ELL2^Occ–(Gly-Ser)4-AFF4^ELLBow fusion (from UniProt Q9UHB7 301-351) | – | stoichiometry N [2]: 2
7 | EILKEMTHSWPPPLTAIHTPSTAEPSKFPFPTK (also: fluorescent label, site not given here) [fluorescently labeled AFF1 peptide (residues 358-390)] | – | binding result (Sumo-ELL2(519-640)): binds
8 | His6-tagged wild-type AFF4^ELLBow (AFF4 301-351) (peptide) PSQPLDASASGDVSCVDEILKEMTHSWPPPLTAIHTPCKTEPSKFPFPTKE | – | binding result (GST-ELL2 (519-640) K625T): binds; binding result (GST-ELL2 (519-640) H559E): binds; binding result (GST-ELL2 (519-640) N619A): binds; binding result (GST-ELL2 (519-640) H608E): binds; Kd (Sumo-ELL2(519-640)): 86 nM
9 | AFF4^ELLBow P342D (301-351) (peptide) PSQPLDASASGDVSCVDEILKEMTHSWPPPLTAIHTPCKTEDSKFPFPTKE | 3 fold | –
10 | AFF4^ELLBow E322H (301-351) (peptide) PSQPLDASASGDVSCVDEILKHMTHSWPPPLTAIHTPCKTEPSKFPFPTKE | < 2 fold | –
11 | AFF4^ELLBow I319D/L320D (301-351) (peptide) PSQPLDASASGDVSCVDEDDKEMTHSWPPPLTAIHTPCKTEPSKFPFPTKE | > 25 fold | –
12 | AFF4^ELLBow F345D/F347D (301-351) (peptide) PSQPLDASASGDVSCVDEILKEMTHSWPPPLTAIHTPCKTEPSKDPDPTKE | < 2 fold | –
13 | AFF4^ELLBow I319D/L320D/M323D (301-351) (peptide) PSQPLDASASGDVSCVDEDDKEDTHSWPPPLTAIHTPCKTEPSKFPFPTKE | – | Kd (Sumo-ELL2(519-640)): > 3000 nM
14 | AFF4^ELLBow I334D (301-351) (peptide) PSQPLDASASGDVSCVDEILKEMTHSWPPPLTADHTPCKTEPSKFPFPTKE | 8 fold | –
